Values joined by “and” are separate entries in the source; they are usually repeats but may differ in a detail not shown here. Equal entries are not always repeated.
Experiments:
[1] = biological target: T1, Recombinant cynomologous monkey IL-6 (cynomolgus monkey, UniProt P79341 28-212, limits assumed); assay: cell-based or functional assay
T1 sequence (looked up): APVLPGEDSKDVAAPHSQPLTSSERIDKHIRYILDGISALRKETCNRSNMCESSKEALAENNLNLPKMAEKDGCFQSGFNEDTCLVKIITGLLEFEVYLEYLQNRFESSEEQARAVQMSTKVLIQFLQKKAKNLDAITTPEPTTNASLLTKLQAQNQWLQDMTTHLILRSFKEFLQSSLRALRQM

Recombinant human IL-6 [2] = biological target: T2, Recombinant human IL-6 (human, UniProt P05231 29-212); assay: cell-based or functional assay
[3] = biological target: T3, Recombinant Rhesus monkey IL-6 (rhesus monkey, UniProt P51494 28-212, limits assumed); assay: cell-based or functional assay
T3 sequence (looked up): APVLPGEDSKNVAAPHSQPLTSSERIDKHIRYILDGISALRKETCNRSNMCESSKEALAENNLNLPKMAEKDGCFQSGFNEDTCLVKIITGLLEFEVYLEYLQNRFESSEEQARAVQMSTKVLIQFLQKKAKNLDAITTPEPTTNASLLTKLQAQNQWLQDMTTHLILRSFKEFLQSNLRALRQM

[4] = biological target: Human mammalian-derived IL-6 (human, UniProt P05231 30-212); assay: cell-based or functional assay
Recombinant human IL-6 [5] = biological target: T2, Recombinant human IL-6; assay: BIAcore 3000; IgG4 captured by anti-human Fc F(ab')2, human IL-6 as analyte
Experimental: (§1) BIA (Biamolecular Interaction Analysis) was performed using a BIAcore 3000 (BIAcore AB). Affinipure F(ab′)₂ Fragment goat anti-human IgG, Fc fragment specific (Jackson ImmunoResearch) was immobilised on a CM5 Sensor Chip via amine coupling chemistry to a capture level of ≈5000 response units (RUs). HBS-EP buffer (10 mM HEPES pH 7.4, 0.15 M NaCl, 3 mM EDTA, 0.005% Surfactant P20, BIAcore AB) was used as the running buffer with a flow rate of 10 μl/min. A 10 μl injection of CA030₋240.g1 at 4 μg/mL was used for capture by the immobilised anti-human IgG-Fc. Human IL-6 was titrated over the captured CAO30₋240.g1 at various concentrations at a flow rate of 30 μL/min. The surface was regenerated by a 10 μL injection of 40 mM HCl, followed by a 5 μL injection of 5 mM NaOH at a flowrate of 10 μL/min.
(§2) Background subtraction binding curves were analysed using the BIAevaluation software (version 3.2) following standard procedures. Kinetic parameters were determined from the fitting algorithm.

Recombinant human IL-6 [6] = biological target: T2, Recombinant human IL-6; assay: BIAcore 3000; mean of the two determinations of Table 1.1
Experimental: as §1, §2
One batch of CA030₋240.g1 was used in this study.

ND50, inhibition of IL-6 induced proliferation of T1165 cells [1]: 5.4 ng/ml and 35.6 pM
ND50, inhibition of IL-6 induced proliferation of T1165 cells (Recombinant human IL-6 [2]): 1.1 ng/ml and 7.26 pM
ND50, inhibition of IL-6 induced proliferation of T1165 cells [3]: 2.2 ng/ml and 14.5 pM
ND50, inhibition of IL-6 induced proliferation of T1165 cells [4]: 3.6 ng/ml and 23.8 pM
Kd (Recombinant human IL-6 [5]): 10.5 pM and 9.02 pM
koff (Recombinant human IL-6 [5]): 7.68e-06 s⁻¹
kon (Recombinant human IL-6 [5]): 731000 M⁻¹ s⁻¹ and 852000 M⁻¹ s⁻¹
Kd (Recombinant human IL-6 [6]): 9.76 pM
B1: CA030-00240.g1 whole IgG4 (antibody, V domains shown)
VH: EVQLVESGGGLVQPGGSLRLSCAASGFNFNDYFMNWVRQAPGKGLEWVAQMRNKNYQYGTYYAESLEGRFTISRDDSKNSLYLQMNSLKTEDTAVYYCARESYYGFTSYWGQGTLVTVSS
VL: DIQMTQSPSSLSASVGDRVTITCQASQDIGISLSWYQQKPGKAPKLLIYNANNLADGVPSRFSGSGSGTDFTLTISSLQPEDFATYYCLQHNSAPYTFGQGTKLEIKR
notes: Made in CHO cells; also called CA030-240.g1; CA030_240.g1

— patent US20070154481A1 (UCB, published 2007)
